In article PMC9482650, “Quantitative fragmentomics allow affinity mapping of interactomes” (Nature Communications, 2022):

T1: TJP3_3, O95049
T1 sequence (O95049 375-456, limits assumed, looked up): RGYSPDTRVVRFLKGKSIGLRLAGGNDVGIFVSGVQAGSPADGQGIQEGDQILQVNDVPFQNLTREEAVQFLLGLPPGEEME

T2: MPDZ_12, O75970
T2 sequence (O75970 1857-1958, limits assumed, looked up): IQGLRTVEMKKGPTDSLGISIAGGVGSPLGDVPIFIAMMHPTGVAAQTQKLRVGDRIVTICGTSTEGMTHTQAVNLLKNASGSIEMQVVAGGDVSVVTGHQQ

T3: DFNB31_2, Q9P202
T3 sequence (Q9P202 274-371, limits assumed, looked up): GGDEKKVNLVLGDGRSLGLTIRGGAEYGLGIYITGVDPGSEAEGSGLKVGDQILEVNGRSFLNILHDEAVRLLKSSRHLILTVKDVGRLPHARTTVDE

T4: CARD11, Q9BXL7
T4 sequence (Q9BXL7 662-765, limits assumed, looked up): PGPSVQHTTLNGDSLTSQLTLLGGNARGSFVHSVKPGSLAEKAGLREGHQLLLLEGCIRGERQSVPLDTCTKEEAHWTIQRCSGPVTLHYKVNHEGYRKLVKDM

T5: DFNB31_1, Q9P202
T5 sequence (Q9P202 135-233, limits assumed, looked up): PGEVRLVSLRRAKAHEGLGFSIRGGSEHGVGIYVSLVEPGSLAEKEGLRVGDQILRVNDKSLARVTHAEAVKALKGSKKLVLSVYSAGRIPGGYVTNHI

T6: ARHGAP21, Q5T5U3
T6 sequence (Q5T5U3 45-169, limits assumed, looked up): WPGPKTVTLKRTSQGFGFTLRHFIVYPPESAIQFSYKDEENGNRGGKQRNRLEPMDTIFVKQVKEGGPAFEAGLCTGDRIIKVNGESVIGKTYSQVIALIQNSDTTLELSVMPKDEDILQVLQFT

T7: HTRA3, P83110
T7 sequence (P83110 354-453, limits assumed, looked up): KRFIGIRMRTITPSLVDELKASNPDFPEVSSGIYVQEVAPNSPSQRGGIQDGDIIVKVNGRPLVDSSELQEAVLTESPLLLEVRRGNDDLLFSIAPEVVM

T8: LNX2_2, Q8N448
T8 sequence (Q8N448 334-432, limits assumed, looked up): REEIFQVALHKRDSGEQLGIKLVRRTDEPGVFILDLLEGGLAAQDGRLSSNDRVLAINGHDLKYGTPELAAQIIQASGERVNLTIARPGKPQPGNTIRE

T9: SNTB1, Q13884
T9 sequence (Q13884 107-205, limits assumed, looked up): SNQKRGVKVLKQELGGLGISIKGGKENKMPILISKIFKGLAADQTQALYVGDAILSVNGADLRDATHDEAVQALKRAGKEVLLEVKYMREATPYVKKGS

T10: RAPGEF6, Q8TEU7
T10 sequence (Q8TEU7 525-625, limits assumed, looked up): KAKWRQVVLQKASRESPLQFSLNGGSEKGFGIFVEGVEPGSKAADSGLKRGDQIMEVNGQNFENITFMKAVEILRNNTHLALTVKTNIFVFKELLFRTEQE

T11: DFNB31_3, Q9P202
T11 sequence (Q9P202 811-907, limits assumed, looked up): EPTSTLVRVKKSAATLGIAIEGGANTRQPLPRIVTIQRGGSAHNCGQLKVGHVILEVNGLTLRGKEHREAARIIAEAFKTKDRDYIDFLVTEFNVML

T12: APBA2_2, Q99767
T12 sequence (Q99767 654-744, limits assumed, looked up): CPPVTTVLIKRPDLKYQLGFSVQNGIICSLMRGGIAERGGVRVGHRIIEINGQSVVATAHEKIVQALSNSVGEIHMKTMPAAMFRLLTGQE

T13: SNTG1, Q9NSN8
T13 sequence (Q9NSN8 52-150, limits assumed, looked up): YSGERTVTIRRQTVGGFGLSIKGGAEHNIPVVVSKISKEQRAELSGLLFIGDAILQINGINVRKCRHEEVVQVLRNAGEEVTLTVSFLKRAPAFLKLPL


What follows are binders tested against FRMPD4, Q14CM0 (assay: holdup assay). Conditions: plain residues with an end cap or a label only (N-terminal biotin on a linker: ado-ado).
Sequence of FRMPD4, Q14CM0 (Q14CM0 67-160): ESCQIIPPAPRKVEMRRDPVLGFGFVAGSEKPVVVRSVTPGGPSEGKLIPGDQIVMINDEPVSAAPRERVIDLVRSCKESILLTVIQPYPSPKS
Design: key: below the threshold = too weak to quantify, mostly under pKd 3.1 to 4
In the case of LPHPHSTTRV [NLGN2, Q8NFZ4], the pKd is reported as “below the threshold”.
For PRISRSQSEL [CCDC134, Q9H6E4], the pKd was “below the threshold”.

The binders below were run against NOS1, P29475 (assay: holdup assay). Conditions: plain residues with an end cap or a label only (N-terminal biotin on a linker: ado-ado).
Sequence of NOS1, P29475 (P29475 9-101): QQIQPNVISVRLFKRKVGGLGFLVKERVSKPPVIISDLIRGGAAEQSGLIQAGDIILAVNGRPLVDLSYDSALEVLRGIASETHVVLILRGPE
Design: key: below the threshold = too weak to quantify, mostly under pKd 3.1 to 4
For LPHPHSTTRV [NLGN2, Q8NFZ4], the pKd was 3.63.
In the case of PRISRSQSEL [CCDC134, Q9H6E4], the pKd is reported as “below the threshold”.

The binders below were run against T1, TJP3_3, O95049 (assay: holdup assay). Conditions: plain residues with an end cap or a label only (N-terminal biotin on a linker: ado-ado).
Design: key: below the threshold = too weak to quantify, mostly under pKd 3.1 to 4
For LPHPHSTTRV [NLGN2, Q8NFZ4], the pKd was “below the threshold”.
In the case of PRISRSQSEL [CCDC134, Q9H6E4], the pKd is reported as “below the threshold”.

What follows are binders tested against SNX27, Q96L92 (assay: holdup assay). Conditions: plain residues with an end cap or a label only (N-terminal biotin on a linker: ado-ado).
Design: key: below the threshold = too weak to quantify, mostly under pKd 3.1 to 4
Work on LPHPHSTTRV [NLGN2, Q8NFZ4] yielded a pKd of 5.41.
For PRISRSQSEL [CCDC134, Q9H6E4], the pKd was “below the threshold”.

What follows are binders tested against T2, MPDZ_12, O75970 (assay: holdup assay). Conditions: plain residues with an end cap or a label only (N-terminal biotin on a linker: ado-ado).
Design: key: below the threshold = too weak to quantify, mostly under pKd 3.1 to 4
With LPHPHSTTRV [NLGN2, Q8NFZ4] the pKd was “below the threshold”.
For PRISRSQSEL [CCDC134, Q9H6E4], the pKd was “below the threshold”.

These binders were tested against MAGI2_6, Q86UL8 (assay: holdup assay). Conditions: plain residues with an end cap or a label only (N-terminal biotin on a linker: ado-ado).
Sequence of MAGI2_6, Q86UL8 (Q86UL8 1141-1229): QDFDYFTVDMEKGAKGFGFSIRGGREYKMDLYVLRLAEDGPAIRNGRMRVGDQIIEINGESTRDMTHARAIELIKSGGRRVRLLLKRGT
Design: key: below the threshold = too weak to quantify, mostly under pKd 3.1 to 4
In the case of LPHPHSTTRV [NLGN2, Q8NFZ4], the pKd is reported as “below the threshold”.
For PRISRSQSEL [CCDC134, Q9H6E4], the pKd was “below the threshold”.

What follows are binders tested against Inadl_4, Q8NI35 (assay: holdup assay). Conditions: plain residues with an end cap or a label only (N-terminal biotin on a linker: ado-ado).
Sequence of Inadl_4, Q8NI35 (Q8NI35 547-651): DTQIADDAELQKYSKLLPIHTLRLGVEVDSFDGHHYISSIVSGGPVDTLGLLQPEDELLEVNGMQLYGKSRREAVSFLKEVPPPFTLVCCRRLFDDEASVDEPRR
Design: key: below the threshold = too weak to quantify, mostly under pKd 3.1 to 4
LPHPHSTTRV [NLGN2, Q8NFZ4] was tested, and the pKd was “below the threshold”.
With PRISRSQSEL [CCDC134, Q9H6E4] the pKd was “below the threshold”.

These binders were tested against T3, DFNB31_2, Q9P202 (assay: holdup assay). Conditions: plain residues with an end cap or a label only (N-terminal biotin on a linker: ado-ado).
Design: key: below the threshold = too weak to quantify, mostly under pKd 3.1 to 4
For LPHPHSTTRV [NLGN2, Q8NFZ4], the pKd was “below the threshold”.
With PRISRSQSEL [CCDC134, Q9H6E4] the pKd was “below the threshold”.

The binders below were run against T4, CARD11, Q9BXL7 (assay: holdup assay). Conditions: plain residues with an end cap or a label only (N-terminal biotin on a linker: ado-ado).
Design: key: below the threshold = too weak to quantify, mostly under pKd 3.1 to 4
With LPHPHSTTRV [NLGN2, Q8NFZ4] the pKd was “below the threshold”.
With PRISRSQSEL [CCDC134, Q9H6E4] the pKd was “below the threshold”.

Each binder was assayed against T5, DFNB31_1, Q9P202 (assay: holdup assay). Conditions: plain residues with an end cap or a label only (N-terminal biotin on a linker: ado-ado).
Design: key: below the threshold = too weak to quantify, mostly under pKd 3.1 to 4
With LPHPHSTTRV [NLGN2, Q8NFZ4] the pKd was 4.13.
For PRISRSQSEL [CCDC134, Q9H6E4], the pKd was “below the threshold”.

What follows are binders tested against T6, ARHGAP21, Q5T5U3 (assay: holdup assay). Conditions: plain residues with an end cap or a label only (N-terminal biotin on a linker: ado-ado).
Design: key: below the threshold = too weak to quantify, mostly under pKd 3.1 to 4
Work on LPHPHSTTRV [NLGN2, Q8NFZ4] yielded a pKd of 3.71.
For PRISRSQSEL [CCDC134, Q9H6E4], the pKd was “below the threshold”.

Each binder was assayed against T7, HTRA3, P83110 (assay: holdup assay). Conditions: plain residues with an end cap or a label only (N-terminal biotin on a linker: ado-ado).
Design: key: below the threshold = too weak to quantify, mostly under pKd 3.1 to 4
For LPHPHSTTRV [NLGN2, Q8NFZ4], the pKd was “below the threshold”.
In the case of PRISRSQSEL [CCDC134, Q9H6E4], the pKd is reported as “below the threshold”.

What follows are binders tested against T8, LNX2_2, Q8N448 (assay: holdup assay). Conditions: plain residues with an end cap or a label only (N-terminal biotin on a linker: ado-ado).
Design: key: below the threshold = too weak to quantify, mostly under pKd 3.1 to 4
Work on LPHPHSTTRV [NLGN2, Q8NFZ4] yielded a pKd of 3.51.
With PRISRSQSEL [CCDC134, Q9H6E4] the pKd was “below the threshold”.

These binders were tested against Inadl_10, Q8NI35 (assay: holdup assay). Conditions: plain residues with an end cap or a label only (N-terminal biotin on a linker: ado-ado).
Sequence of Inadl_10, Q8NI35 (Q8NI35 1673-1763): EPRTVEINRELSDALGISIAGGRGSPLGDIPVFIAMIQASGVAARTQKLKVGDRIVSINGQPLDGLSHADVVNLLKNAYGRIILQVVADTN
Design: key: below the threshold = too weak to quantify, mostly under pKd 3.1 to 4
In the case of LPHPHSTTRV [NLGN2, Q8NFZ4], the pKd is reported as “below the threshold”.
PRISRSQSEL [CCDC134, Q9H6E4] was tested, and the pKd was “below the threshold”.

What follows are binders tested against T9, SNTB1, Q13884 (assay: holdup assay). Conditions: plain residues with an end cap or a label only (N-terminal biotin on a linker: ado-ado).
Design: key: below the threshold = too weak to quantify, mostly under pKd 3.1 to 4
LPHPHSTTRV [NLGN2, Q8NFZ4] was tested, and the pKd was 4.22.
With PRISRSQSEL [CCDC134, Q9H6E4] the pKd was “below the threshold”.

What follows are binders tested against SCRIB_1, Q14160 (assay: holdup assay). Conditions: plain residues with an end cap or a label only (N-terminal biotin on a linker: ado-ado).
Sequence of SCRIB_1, Q14160 (Q14160 718-814): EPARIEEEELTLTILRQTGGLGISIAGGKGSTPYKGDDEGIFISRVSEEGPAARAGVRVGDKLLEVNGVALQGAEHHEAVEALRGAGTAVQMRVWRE
Design: key: below the threshold = too weak to quantify, mostly under pKd 3.1 to 4
For LPHPHSTTRV [NLGN2, Q8NFZ4], the pKd was “below the threshold”.
PRISRSQSEL [CCDC134, Q9H6E4] was tested, and the pKd was “below the threshold”.

What follows are binders tested against NHERF4_2, Q86UT5 (assay: holdup assay). Conditions: plain residues with an end cap or a label only (N-terminal biotin on a linker: ado-ado).
Sequence of NHERF4_2, Q86UT5 (Q86UT5 220-308): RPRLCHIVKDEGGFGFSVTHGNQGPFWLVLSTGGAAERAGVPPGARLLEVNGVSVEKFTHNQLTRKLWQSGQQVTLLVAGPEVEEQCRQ
Design: key: below the threshold = too weak to quantify, mostly under pKd 3.1 to 4
In the case of LPHPHSTTRV [NLGN2, Q8NFZ4], the pKd is reported as “below the threshold”.
In the case of PRISRSQSEL [CCDC134, Q9H6E4], the pKd is reported as “below the threshold”.

The binders below were run against GIPC2, Q8TF65 (assay: holdup assay). Conditions: plain residues with an end cap or a label only (N-terminal biotin on a linker: ado-ado).
Sequence of GIPC2, Q8TF65 (Q8TF65 112-203): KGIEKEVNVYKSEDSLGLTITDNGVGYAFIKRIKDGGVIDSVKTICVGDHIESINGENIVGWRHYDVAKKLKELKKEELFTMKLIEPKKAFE
Design: key: below the threshold = too weak to quantify, mostly under pKd 3.1 to 4
For LPHPHSTTRV [NLGN2, Q8NFZ4], the pKd was “below the threshold”.
In the case of PRISRSQSEL [CCDC134, Q9H6E4], the pKd is reported as “below the threshold”.

Each binder was assayed against T10, RAPGEF6, Q8TEU7 (assay: holdup assay). Conditions: plain residues with an end cap or a label only (N-terminal biotin on a linker: ado-ado).
Design: key: below the threshold = too weak to quantify, mostly under pKd 3.1 to 4
LPHPHSTTRV [NLGN2, Q8NFZ4] was tested, and the pKd was “below the threshold”.
With PRISRSQSEL [CCDC134, Q9H6E4] the pKd was “below the threshold”.

Each binder was assayed against T11, DFNB31_3, Q9P202 (assay: holdup assay). Conditions: plain residues with an end cap or a label only (N-terminal biotin on a linker: ado-ado).
Design: key: below the threshold = too weak to quantify, mostly under pKd 3.1 to 4
For LPHPHSTTRV [NLGN2, Q8NFZ4], the pKd was “below the threshold”.
With PRISRSQSEL [CCDC134, Q9H6E4] the pKd was 3.48.

The binders below were run against PICK1, Q9NRD5 (assay: holdup assay). Conditions: plain residues with an end cap or a label only (N-terminal biotin on a linker: ado-ado).
Sequence of PICK1, Q9NRD5 (Q9NRD5 17-115): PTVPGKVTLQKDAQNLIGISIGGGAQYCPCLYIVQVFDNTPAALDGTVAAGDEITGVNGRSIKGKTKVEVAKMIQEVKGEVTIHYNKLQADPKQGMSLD
Design: key: below the threshold = too weak to quantify, mostly under pKd 3.1 to 4
LPHPHSTTRV [NLGN2, Q8NFZ4] gave a pKd of 4.24.
PRISRSQSEL [CCDC134, Q9H6E4] gave a pKd of 4.14.

Each binder was assayed against T12, APBA2_2, Q99767 (assay: holdup assay). Conditions: plain residues with an end cap or a label only (N-terminal biotin on a linker: ado-ado).
Design: key: below the threshold = too weak to quantify, mostly under pKd 3.1 to 4
LPHPHSTTRV [NLGN2, Q8NFZ4] was tested, and the pKd was “below the threshold”.
With PRISRSQSEL [CCDC134, Q9H6E4] the pKd was “below the threshold”.

Each binder was assayed against T13, SNTG1, Q9NSN8 (assay: holdup assay). Conditions: plain residues with an end cap or a label only (N-terminal biotin on a linker: ado-ado).
Design: key: below the threshold = too weak to quantify, mostly under pKd 3.1 to 4
LPHPHSTTRV [NLGN2, Q8NFZ4] was tested, and the pKd was “below the threshold”.
PRISRSQSEL [CCDC134, Q9H6E4] was tested, and the pKd was “below the threshold”.

The binders below were run against PTPN3, P26045 (assay: holdup assay). Conditions: plain residues with an end cap or a label only (N-terminal biotin on a linker: ado-ado).
Sequence of PTPN3, P26045 (P26045 505-587): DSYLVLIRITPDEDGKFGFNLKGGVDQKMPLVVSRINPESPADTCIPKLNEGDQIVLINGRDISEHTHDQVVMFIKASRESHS
Design: key: below the threshold = too weak to quantify, mostly under pKd 3.1 to 4
LPHPHSTTRV [NLGN2, Q8NFZ4] was tested, and the pKd was “below the threshold”.
For PRISRSQSEL [CCDC134, Q9H6E4], the pKd was 4.22.

These binders were tested against IL16_3, Q14005 (assay: holdup assay). Conditions: plain residues with an end cap or a label only (N-terminal biotin on a linker: ado-ado).
Sequence of IL16_3, Q14005 (Q14005 1107-1207): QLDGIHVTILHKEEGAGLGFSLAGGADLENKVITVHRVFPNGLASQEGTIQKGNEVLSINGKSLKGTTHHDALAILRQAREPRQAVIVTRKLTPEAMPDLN
Design: key: below the threshold = too weak to quantify, mostly under pKd 3.1 to 4
In the case of LPHPHSTTRV [NLGN2, Q8NFZ4], the pKd is reported as “below the threshold”.
With PRISRSQSEL [CCDC134, Q9H6E4] the pKd was “below the threshold”.
